Measurements published in patent US20150119341A1.
[ ]: non-standard residue; d: D form. Nle = CCCC[C@H](N)C(=O)O

Experiments:
[1] = biological target: recombinant human melanocortin-1 receptor (hMCR-1a) in membrane homogenates of HEK-293 cells (human) (UniProt Q01726); assay: competitive inhibition of [I125]-NDP-alpha-MSH, hMCR-1 HEK-293 membranes
[2] = biological target: recombinant human melanocortin-4 receptor (hMCR-4) in membrane homogenates of HEK-293 cells (human) (UniProt P32245); assay: competitive inhibition of [I125]-NDP-alpha-MSH, hMCR-4 HEK-293 membranes
Chain of recombinant human melanocortin-4 receptor (hMCR-4) in membrane homogenates of HEK-293 cells (human) (P32245 whole entry): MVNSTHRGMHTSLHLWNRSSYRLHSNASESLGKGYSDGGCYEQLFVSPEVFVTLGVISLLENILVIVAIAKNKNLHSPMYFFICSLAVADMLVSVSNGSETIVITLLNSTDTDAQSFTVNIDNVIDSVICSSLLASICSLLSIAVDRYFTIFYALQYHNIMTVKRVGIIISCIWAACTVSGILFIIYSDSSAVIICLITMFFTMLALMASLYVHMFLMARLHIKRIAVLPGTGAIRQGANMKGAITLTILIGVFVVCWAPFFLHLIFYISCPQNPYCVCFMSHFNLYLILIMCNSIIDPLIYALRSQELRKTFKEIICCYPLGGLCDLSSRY

Chain of recombinant human melanocortin-1 receptor (hMCR-1a) in membrane homogenates of HEK-293 cells (human) (Q01726 whole entry): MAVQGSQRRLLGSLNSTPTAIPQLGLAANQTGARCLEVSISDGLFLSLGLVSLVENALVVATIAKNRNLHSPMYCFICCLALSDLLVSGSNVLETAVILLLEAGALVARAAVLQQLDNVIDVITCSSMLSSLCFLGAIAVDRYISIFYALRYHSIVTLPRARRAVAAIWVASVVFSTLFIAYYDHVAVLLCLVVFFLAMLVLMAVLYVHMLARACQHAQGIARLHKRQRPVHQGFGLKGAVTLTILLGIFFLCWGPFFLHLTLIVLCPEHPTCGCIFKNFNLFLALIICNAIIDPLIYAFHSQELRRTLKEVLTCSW

Ki [1] | Ki [2] | Substance
0.02 µM | 10 µM | Ac-[Nle]AH[dF]R[dP][dW]-NH2
1.29 µM | 7.12 µM | Ac-[Nle][dF]RAW-NH2
